Holding throughout (assay): cell-based or functional assay
Assay [1] deals with pro-HGF (single-chain hepatocyte growth factor) (UniProt P14210).
Assay [2] deals with Met receptor on A549 lung carcinoma cells (UniProt P08581).
The target of assay [3] is soluble form of hepsin encompassing the entire extracellular domain (Arg45-Leu417) and a C-terminal His8 tag (human) (UniProt P05981).

Some results are limits rather than exact numbers.

pro-HGF (single-chain hepatocyte growth factor), sequence (P14210 32-728 limits assumed): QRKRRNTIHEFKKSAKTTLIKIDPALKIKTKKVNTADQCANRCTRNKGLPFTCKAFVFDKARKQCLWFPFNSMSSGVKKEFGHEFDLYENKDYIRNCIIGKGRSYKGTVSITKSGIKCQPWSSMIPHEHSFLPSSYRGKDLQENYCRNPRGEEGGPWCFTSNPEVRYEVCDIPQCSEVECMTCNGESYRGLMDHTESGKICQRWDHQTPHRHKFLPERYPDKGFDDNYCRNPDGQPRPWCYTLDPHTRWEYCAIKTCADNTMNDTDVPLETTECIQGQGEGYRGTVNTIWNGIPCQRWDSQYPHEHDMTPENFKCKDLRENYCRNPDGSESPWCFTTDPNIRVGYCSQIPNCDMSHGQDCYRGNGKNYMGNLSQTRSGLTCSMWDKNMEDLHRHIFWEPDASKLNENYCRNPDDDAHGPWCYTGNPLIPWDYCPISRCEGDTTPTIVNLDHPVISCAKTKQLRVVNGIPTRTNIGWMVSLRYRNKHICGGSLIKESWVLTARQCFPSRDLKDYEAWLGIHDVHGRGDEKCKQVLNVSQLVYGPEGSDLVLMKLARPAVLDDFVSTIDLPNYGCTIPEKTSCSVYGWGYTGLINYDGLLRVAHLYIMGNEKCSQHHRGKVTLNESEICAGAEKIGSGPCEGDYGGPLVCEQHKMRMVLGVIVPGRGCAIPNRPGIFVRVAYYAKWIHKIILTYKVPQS
Met receptor on A549 lung carcinoma cells, sequence (P08581 25-1390 limits assumed): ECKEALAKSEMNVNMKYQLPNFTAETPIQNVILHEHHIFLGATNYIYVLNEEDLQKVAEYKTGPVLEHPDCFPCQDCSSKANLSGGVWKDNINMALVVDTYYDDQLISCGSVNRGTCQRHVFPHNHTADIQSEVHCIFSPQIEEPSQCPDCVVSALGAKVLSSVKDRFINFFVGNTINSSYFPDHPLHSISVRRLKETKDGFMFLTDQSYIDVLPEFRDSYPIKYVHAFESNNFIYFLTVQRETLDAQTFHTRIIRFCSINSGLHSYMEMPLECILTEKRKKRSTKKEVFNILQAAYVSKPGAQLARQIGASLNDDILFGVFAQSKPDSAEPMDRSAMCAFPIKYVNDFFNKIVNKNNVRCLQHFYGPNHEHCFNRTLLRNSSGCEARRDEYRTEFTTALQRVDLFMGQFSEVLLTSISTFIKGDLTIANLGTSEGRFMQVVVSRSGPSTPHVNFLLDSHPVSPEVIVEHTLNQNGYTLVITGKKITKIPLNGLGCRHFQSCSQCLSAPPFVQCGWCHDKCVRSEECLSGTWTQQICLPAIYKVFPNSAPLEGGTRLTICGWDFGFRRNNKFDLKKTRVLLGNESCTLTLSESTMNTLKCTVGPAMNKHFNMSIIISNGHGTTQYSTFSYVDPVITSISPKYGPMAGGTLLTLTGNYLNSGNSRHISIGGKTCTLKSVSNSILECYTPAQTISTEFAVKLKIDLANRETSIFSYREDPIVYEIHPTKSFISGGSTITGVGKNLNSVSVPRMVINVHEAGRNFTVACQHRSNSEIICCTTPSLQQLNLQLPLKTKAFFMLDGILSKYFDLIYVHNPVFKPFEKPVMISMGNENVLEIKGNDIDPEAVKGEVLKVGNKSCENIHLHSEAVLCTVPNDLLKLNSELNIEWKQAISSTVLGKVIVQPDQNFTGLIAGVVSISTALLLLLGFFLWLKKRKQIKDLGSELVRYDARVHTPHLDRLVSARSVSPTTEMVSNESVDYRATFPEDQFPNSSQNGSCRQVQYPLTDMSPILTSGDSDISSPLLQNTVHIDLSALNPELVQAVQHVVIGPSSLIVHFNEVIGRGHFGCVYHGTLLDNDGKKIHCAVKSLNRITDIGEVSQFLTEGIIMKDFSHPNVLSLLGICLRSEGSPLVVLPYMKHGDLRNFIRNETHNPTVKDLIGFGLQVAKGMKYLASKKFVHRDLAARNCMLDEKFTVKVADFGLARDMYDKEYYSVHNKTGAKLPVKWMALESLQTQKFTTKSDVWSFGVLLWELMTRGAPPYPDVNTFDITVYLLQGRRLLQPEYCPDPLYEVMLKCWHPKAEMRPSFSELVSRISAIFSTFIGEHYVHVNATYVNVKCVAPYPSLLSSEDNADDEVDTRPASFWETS
soluble form of hepsin encompassing the entire extracellular domain (Arg45-Leu417) and a C-terminal His8 tag (human), sequence (P05981 45-162 limits assumed, chain 1 of 2): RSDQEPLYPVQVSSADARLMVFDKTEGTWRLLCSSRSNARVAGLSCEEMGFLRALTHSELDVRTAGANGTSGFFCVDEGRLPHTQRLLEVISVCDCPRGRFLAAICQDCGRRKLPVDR
soluble form of hepsin encompassing the entire extracellular domain (Arg45-Leu417) and a C-terminal His8 tag (human), sequence (P05981 other isoform, or with tags, fused parts or gaps limits assumed, chain 2 of 2): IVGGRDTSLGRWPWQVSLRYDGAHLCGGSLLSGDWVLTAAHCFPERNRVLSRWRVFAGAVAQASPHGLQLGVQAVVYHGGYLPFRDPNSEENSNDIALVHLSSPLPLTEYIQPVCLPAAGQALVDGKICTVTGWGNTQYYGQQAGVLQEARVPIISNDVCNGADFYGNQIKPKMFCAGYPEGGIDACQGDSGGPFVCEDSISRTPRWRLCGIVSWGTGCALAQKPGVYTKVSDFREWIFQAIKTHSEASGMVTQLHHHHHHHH

The substance “HGFA (hepatocyte growth factor activator) comprising residues Val373-Arg407 (from UniProt Q04756 373-407) (enzyme)” displayed a percent of unlabelled pro-HGF (0.3 mg/ml) converted into HGF by 40 nM enzyme in assay [1] above 95%.

As to “HGFHGFA (HGF produced by activation of pro-HGF with HGFA) (from UniProt P14210 32-728; P14210 32-728) (ligand)”, the Met phosphorylation in a kinase receptor assay (KIRA) with A549 cells: concentration of maximal activity in assay [2] came to 250 ng/mL.

Substance “soluble form of HAI-1B (sHAI-1B) comprising the entire extracellular domain (from UniProt O43278 36-465)” had an IC50, inhibition of hepsin enzymatic activity towards S2366 (amidolytic assay) in assay [3] of 21.1 nM.

As to “soluble form of hepsin encompassing the entire extracellular domain (Arg45-Leu417) and a C-terminal His8 tag (from UniProt P05981 45-162; P05981 163-417) (enzyme)”, the percent of unlabelled pro-HGF (0.3 mg/ml) converted into HGF by 40 nM enzyme in assay [1] was above 95%.

Regarding “HGFhepsin (HGF produced by activation of pro-HGF with hepsin) (from UniProt P14210 32-728; P14210 32-728) (ligand)”, the Met phosphorylation in a kinase receptor assay (KIRA) with A549 cells: concentration of maximal activity in assay [2] is 250 ng/mL.
